Results published in publication PMC8902617, “A lysine-rich cluster in the N-BAR domain of ARF GTPase-activating protein ASAP1 is necessary for binding and bundling actin filaments” (The Journal of Biological Chemistry, 2022).

Target: filamentous actin (rabbit skeletal muscle actin) (rabbit, UniProt P68135 1-377)
Test: co-sedimentation; high-speed actin cosedimentation: test protein (2 μM) with F-actin (0-25 μM) in F-actin buffer (5 mM Hepes pH 8.0, 100 mM KCl, 2 mM MgCl2, 0.2 mM CaCl2, 1 mM ATP, 1 mM DTT) for 30 min, 150,000g for 90 min at 24 °C and/or 4 °C; supernatant and pellet on SDS-PAGE, % test protein in the pellet (ACAP1 also by anti-His6 immunoblot)
Conditions: both partners purified

Row | Binder | EC50 [nM] | binding result
1 | ASAP1 BAR-PH (residues 1-431), His6-tagged, wild type (domain or fragment, ASAP1, BAR-PH tandem, residues 1-431; also called ASAP1-BAR-PH-His6; WT BAR-PH; source: E. coli LOBSTR (DE3) RIL or BL21 (DE3), purified (Ni-NTA or HisTrap; buffer exchange or Sephacryl S100)) not shown | ~1000 | –
2 | Q72E ASAP1-BAR-PH-His6 single mutant (domain or fragment, ASAP1, BAR-PH tandem, residues 1-431; Mutant of m2; source: E. coli LOBSTR (DE3) RIL or BL21 (DE3), purified (Ni-NTA or HisTrap; buffer exchange or Sephacryl S100)) not shown | – | binds
3 | [K229A, K231A, K232A] ASAP1-BAR-PH-His6 (domain or fragment, ASAP1, BAR-PH tandem, residues 1-431; Mutant of m2; source: E. coli LOBSTR (DE3) RIL or BL21 (DE3), purified (Ni-NTA or HisTrap; buffer exchange or Sephacryl S100)) not shown | – | binds
4 | [K283A, K284A] ASAP1-BAR-PH-His6 (domain or fragment, ASAP1, BAR-PH tandem, residues 1-431; Mutant of m2; source: E. coli LOBSTR (DE3) RIL or BL21 (DE3), purified (Ni-NTA or HisTrap; buffer exchange or Sephacryl S100)) not shown | – | binds
5 | [K283E, K284E] ASAP1-BAR-PH-His6 (domain or fragment, ASAP1, BAR-PH tandem, residues 1-431; Mutant of m2; source: E. coli LOBSTR (DE3) RIL or BL21 (DE3), purified (Ni-NTA or HisTrap; buffer exchange or Sephacryl S100)) not shown | – | binds
6 | [Q72A, Y82A, N83A] ASAP1-BAR-PH-His6 (domain or fragment, ASAP1, BAR-PH tandem, residues 1-431; Mutant of m2; the text prints [Q72A, Y82A, N83A] throughout; also called cluster 1b Ala triple mutant; source: E. coli LOBSTR (DE3) RIL or BL21 (DE3), purified (Ni-NTA or HisTrap; buffer exchange or Sephacryl S100)) not shown | – | binds
7 | [Q72E, Y82F, N83D] ASAP1-BAR-PH-His6 (domain or fragment, ASAP1, BAR-PH tandem, residues 1-431; Mutant of m2; source: E. coli LOBSTR (DE3) RIL or BL21 (DE3), purified (Ni-NTA or HisTrap; buffer exchange or Sephacryl S100)) not shown | – | binds
8 | ASAP3 BAR-PH (aa 1-394) (domain or fragment, ASAP3, BAR-PH tandem, residues 1-394; source: E. coli LOBSTR (DE3) RIL or BL21 (DE3), purified (Ni-NTA or HisTrap; buffer exchange or Sephacryl S100)) MPEQFSVAEFLAVTAEDLSSPAGAAAFAAKMPRYRGAALAREEILEGDQAILQRIKKAVRAIHSSGLGHVENEEQYREAVESLGNSHLSQNSHELSTGFLNLAVFTREVAALFKNLIQNLNNIVSFPLDSLMKGQLRDGRQDSKKQLEKAWKDYEAKMAKLEKERDRARVTGGIPGEVAQDMQRERRIFQLHMCEYLLKAGESQMKQGPDFLQSLIKFFHAQHNFFQDGWKAAQSLFPFIEKLAASVHALHQAQEDELQKLTQLRDSLRGTLQLESREEHLSRKNSGCGYSIHQHQGNKQFGTEKVGFLYKKSDGIRRVWQKRKCGVKYGCLTISHSTINRPPVKLTLLTCQVRPNPEEKKCFDLVTHNRTYHFQAEDEHECEAWVSVLQNSKD | ~1000 | –
9 | ASAP2 BAR-PH (aa 1-397) (domain or fragment, ASAP2, BAR-PH tandem, residues 1-397; source: E. coli LOBSTR (DE3) RIL or BL21 (DE3), purified (Ni-NTA or HisTrap; buffer exchange or Sephacryl S100)) not shown | ~4000 | –
